The record followed here is US20240252614A1 (Pfizer, published 2024).

For experiment [1], the target named is T1, stabilized hMPV F protein trimer in pre-fusion conformation (human metapneumovirus).
T1 construct: also called preF-hMPV; hMPV pre-fusion F protein
In words: ELISA, F protein coated. Background: In an ELISA, binding on a coated surface is turned into a signal by an enzyme label.
Method: (§1) Briefly, 96-well microtiter plates were coated with 100 μL/well of individual F protein at 2 μg/mL, and then incubated at 4° C. overnight. After washing with 0.01M TBS/0.1% Brij-35, the plates were blocked with 5% non-fat milk for 1 hr at RT. […] After 3 washes with 0.01M TBS/0.1% Brij-35, 100 μL/well of secondary antibody (HRP-anti-human Fc) in a 1:3000 dilution was added to the plates and incubated for 1 hr RT. After 3 washes with 0.01M TBS/0.1% Brij-35, 100 μL/well of TMB-ELISA Substrate Solution was added to the plates. The reaction was stopped with addition of 100 μL/well of 2N H2SO4 after 2 minutes. The plates were then read on a SpectraMax microplate reader with SoftMax Pro software at OD 450 nm (Molecular Devices). The data was analyzed with Graphpad Prism software.

The target of a further experiment is T2, hMPV097 (hMPV A, UniProt Q6WB98 19-102).
T2 construct: T411C-Q434C, E146C-T160C, A459P, G239A, T49I, S149T, T365I
In words: BLI, no stress. For orientation: Biolayer interferometry detects binding as a change in optical thickness at a sensor tip.

Another experiment addresses T3, hMPV085 (hMPV A, UniProt Q6WB98 19-102).
T3 construct: T411C-Q434C, L141C-A161C, A459P
Briefly: BLI, no stress.

In the next experiment the target is T4, hMPV089 (hMPV A, UniProt Q6WB98 19-102).
T4 construct: T411C-Q434C, L141C-A161C, S149T
Briefly: BLI, no stress.

Another experiment deals with hMPV A F WT Control (hMPV A, UniProt Q6WB98 19-102). In words: BLI, no stress.
The target in another experiment is T5, hMPV088 (hMPV A, UniProt Q6WB98 19-102).
T5 construct: T411C-Q434C, L141C-A161C, G239A
In words: BLI, no stress.

Another experiment has as its target T6, hMPV086 (hMPV A, UniProt Q6WB98 19-102).
T6 construct: T411C-Q434C, L141C-A161C, T49I; also called hMP0086
Briefly: BLI, no stress.

The next experiment deals with T7, hMPV078 (hMPV A, UniProt Q6WB98 19-102).
T7 construct: T411C-Q434C, A140C-S149C
Briefly: BLI, no stress.

The next experiment has as its target T8, hMPV100 (hMPV B, UniProt Q6WB98 19-102).
T8 construct: T411C-Q434C
Briefly: BLI, 53C stress.

Experiment [2] concerns the target T9, stabilized hPIV1 F protein trimer in pre-fusion conformation (human parainfluenza virus 1).
T9 construct: also called preF-hPIV1; HPIV1 pre-fusion F protein
Briefly: ELISA, F protein coated.
Method: as §1

For the next experiment, the target named is T10, PIV1060 (PIV1).
T10 construct: Q92L, G134A, A466L, S473L, A480L
Briefly: BLI, no stress.

Another experiment addresses T11, PIV1047 (PIV1).
T11 construct: F113G, F114S, Q92C-G134C, A466L, S473L, A480L
Briefly: BLI, no stress.

For another experiment, the target named is T12, PIV1068 (PIV1).
T12 construct: A466I, S473I, A480I, Q92L, G134A
Briefly: BLI, no stress.

The target in a further experiment is T13, PIV1053 (PIV1).
T13 construct: F113G, F114S, A466L, S473L, A480L, G134A
In words: BLI, no stress.

Another experiment addresses T14, PIV1065 (PIV1).
T14 construct: F113G, F114S, Q92C-G134C, A466I, S473I
In words: BLI, no stress.

For another experiment, the target named is T15, PIV1066 (PIV1).
T15 construct: A466I, S473I, A480L, Q92L, G134A
In words: BLI, no stress.

A further experiment concerns the target T16, PIV1058 (PIV1).
T16 construct: A466L, S473L, Q92A, G134A
In words: BLI, no stress.

The target of the next experiment is T17, PIV1054 (PIV1).
T17 construct: A466L, S473L, A480L, G134A
In words: BLI, no stress.

For a further experiment, the target named is T18, PIV1050 (PIV1).
T18 construct: F113G, F114S, Q92C-G134C, A466V, S473V, A480V
In words: BLI, no stress.

The next experiment concerns the target T19, PIV1057 (PIV1).
T19 construct: A466L, S473L, A480L, Q92A, G134A
In words: BLI, no stress.

The next experiment concerns the target T20, PIV1052 (PIV1).
T20 construct: Q92C-G134C, A466V, S473V; also called PV1052
In words: BLI, no stress.

The next experiment concerns the target T21, PIV1061 (PIV1).
T21 construct: Q92L, G134A, A466L, S473L
Briefly: BLI, no stress.

In the next experiment the target is T22, PIV1055 (PIV1).
T22 construct: A466L, S473L, G134A
Briefly: BLI, no stress.

A further experiment concerns the target T23, PIV1063 (PIV1).
T23 construct: A466L, S473L, A480L, Q92A, G134L
In words: BLI, no stress.

Experiment [3] has as its target T24, PIV1 F literature prefusion comparison (PIV1).
T24 construct: F113G, F114S, A466I, S473I (Stewart-Jones et al. 2018)
In words: BLI, no stress.
Method: (§2) The OCTET HTX (Sartorius, Gottingen, Germany) instrument was used to evaluate the expression and conformational integrity for each mutant. All measurements were conducted at 30° C. temperature in 96-well black plates (Corning, Corning, NY) with a final volume of 240 μL per well at a constant agitation rate of 1000 RPM.
(§3) Conformation integrity of PIV1 F protein mutants were evaluated by a thermal stress experiment. Crude cell culture supernatants were normalized based on the results of the titer quantitation and then incubated for 1 hour at room temperature and two higher temperatures. For the initial testing of PIV1 mutants, the two temperatures were 50° C. and 53° C. […] Anti-Human IgG Fc Capture (AHC) biosensors were first equilibrated in PB for before being dipped into more PB to establish the initial baseline. […] The mAb-bound biosensors were then dipped into the thermal stresses cell culture supernatants for 5 minutes.

For another experiment, the target named is T25, PIV1048 (PIV1).
T25 construct: Q92C-G134C, A466L, S473L, A480L
In words: BLI, no stress.

A further experiment concerns the target T26, PIV1059 (PIV1).
T26 construct: F113G, F114S, A466L, S473L, A480L, G134A, Q92L
Briefly: BLI, no stress.

In the next experiment the target is T27, PIV1049 (PIV1).
T27 construct: Q92C-G134C, A466L, S473L
Briefly: BLI, no stress.

Another experiment has as its target T28, PIV1051 (PIV1).
T28 construct: Q92C-G134C, A466V, S473V, A480V
Briefly: BLI, no stress.

For another experiment, the target named is T29, PIV1067 (PIV1).
T29 construct: F113G, F114S, Q92C-G134C, A466I, S473I, A480I
Briefly: BLI, no stress.

The target in another experiment is T30, PIV1062 (PIV1).
T30 construct: F113G, F114S, A466L, S473L, A480L, Q92A, G134L
In words: BLI, no stress.

A further experiment concerns the target T31, PIV1064 (PIV1).
T31 construct: F113G, F114S, Q92C-G134C, A466I, S473I, A480L
Briefly: BLI, no stress.

In another experiment the target is T32, PIV1056 (PIV1).
T32 construct: F113G, F114S, A466L, S473L, A480L, Q92A, G134A
Briefly: BLI, no stress.

Method for PIV1047: as §2, §3
Method for PIV1048: as §2, §3
Method for PIV1049: as §2, §3
Method for PIV1050: as §2, §3
Method for PIV1051: as §2, §3
Method for PIV1052: as §2, §3
Method for PIV1053: as §2, §3
Method for PIV1054: as §2, §3
Method for PIV1055: as §2, §3
Method for PIV1056: as §2, §3
Method for PIV1057: as §2, §3
Method for PIV1058: as §2, §3
Method for PIV1059: as §2, §3
Method for PIV1060: as §2, §3
Method for PIV1061: as §2, §3
Method for PIV1062: as §2, §3
Method for PIV1063: as §2, §3
Method for PIV1064: as §2, §3
Method for PIV1065: as §2, §3
Method for PIV1066: as §2, §3
Method for PIV1067: as §2, §3
Method for PIV1068: as §2, §3
Method for hMPV A F WT Control: as §2
(§4) Conformation integrity of hMPV A F protein mutants were evaluated by thermal stress experiments. Crude cell culture supernatants were normalized based on the results of the titer quantitation and then incubated for 1 hour at room temperature and two higher temperatures. […] Anti-Human IgG Fc Capture (AHC) biosensors were first equilibrated in PB before being dipped into more PB to establish the initial baseline. […] The mAb-bound biosensors were then dipped into the thermal stressed cell culture supernatants for 5 minutes. The kinetics analysis was done by OCTET data analysis software (version 12.0, Sartorius) based on curve fitting of the entire associate step.
Method for hMPV078: as §2, §4
Method for hMPV085: as §2, §4
Method for hMPV086: as §2, §4
Method for hMPV088: as §2, §4
Method for hMPV089: as §2, §4
Method for hMPV097: as §2, §4
Method for hMPV100: All measurements were conducted at 30° C. temperature in 96-well black plates (Corning, Corning, NY) with a final volume of 240 μL per well at a constant agitation rate of 1000 RPM.
Conformation integrity of hMPV B F protein mutants were evaluated by a thermal stress experiment. Crude cell culture supernatants were normalized based on the results of the titer quantitation and then incubated for 1 hour at room temperature and two higher temperatures. For the testing of hMPV B single mutants, the two temperatures were 53° C. and 56° C. After the incubation, the protein mutants were probed with prefusion specific monoclonal antibody hMPV-2 by OCTET HTX. Anti-Human IgG Fc Capture (AHC) biosensors were first equilibrated in PB before being dipped into more PB for to establish the initial baseline. Biosensors were incubated with hMPV-2 before being equilibrated in PB to establish the experimental baseline. The mAb-bound biosensors were then dipped into the thermal stresses cell culture supernatants for 5 minutes.

B1: hMPV-2 mAb (antibody, V domains shown)
VH: QVQLQQSGAEVKKPGASVKVSCKASGYTFTSYGISWVRQAPGQGLEWMGWISGYNGNTNYAQTFQGTFTMTTDTSTSTAYMELRRLRSGDTAVYYCARDRYYASGSYNGMDVWGQGTTVTVSS
VL: QSALTQPPSASGAPGQRVTVSCSGSSSNVGSSSVYWYQQLPGTAPKLLIYRNNQRPSGVPDRFSGSKSGTSASLAISGLRSEDEADYYCAAWDDSLSGWVFGGGTKLTVLG
notes: human IgG1
By EC50 is commonly meant the concentration needed to bring the measured effect to its halfway point. The low end stands for greater potency, the high end for weaker potency. In turn, B1 registered an EC50 in [1] of 0.097 nM. Further, the “Response Shift” value in the experiment with hMPV097 worked out at 0.923 nm; in the experiment with hMPV085, 0.766 nm; in the experiment with hMPV089 it was 0.891 nm; in the experiment with hMPV A F WT Control, 0.898 nm; with hMPV088 it was 0.878 nm; with hMPV086, 0.851 nm. The “Response Shift” value came to 0.86 nm with hMPV078 and 0.854 nm with hMPV100.

B2: PIV1-8 mAb (antibody, V domains shown)
VH: QVQLVQSGAEVKKPGSSVKVSCEASGGTFSNYVISWVRQAPGQGLEWMGGIIPVFATAKYAQKFQGRVTIIADQSTNTAYLELSSLRSDDTAVYFCASVDSGGTWWDAFAIWGQGTMVTVSS
VL: QAVVTQPRSVSGSPGQAVTISCTGTSSDVGGYNYVSWYQHHPGKAPKLIIYDVTKRPSGVPDRFSGSKSGNTASLTISGLQTEYEADYYCCSYAGSYTLVFGGGTKLTVLG
notes: human IgG1; also called hPIV1-8 mAb; hPIV1-8
In the case of B2, a half-maximal effect in experiment [2] (EC50) was put at 0.103 nM. Also, the “Response Shift” value was found to be 0.584 nm in the experiment with PIV1060; 0.79 nm in the experiment with PIV1047; 0.628 nm in the experiment with PIV1068; 0.857 nm with PIV1053; 0.809 nm with PIV1065; 0.642 nm with PIV1066. The “Response Shift” value worked out at 0.688 nm in the experiment with PIV1058; 0.764 nm with PIV1054; 0.848 nm with PIV1050; 0.718 nm in the experiment with PIV1057; 0.67 nm with PIV1052; 0.619 nm with PIV1061. In addition, the “Response Shift” value is 0.757 nm with PIV1055; -0.116 nm in the experiment with PIV1063; 0.709 nm in experiment [3]; 0.737 nm with PIV1048; 0.841 nm in the experiment with PIV1059; 0.636 nm in the experiment with PIV1049. Moreover, the “Response Shift” value with PIV1051 is 0.725 nm; with PIV1067, 0.849 nm; with PIV1062, 0.619 nm; with PIV1064 it was 0.912 nm; with PIV1056 it was 0.739 nm.
